Assay results as given in US20190315838A1 (MIT, published 2019).
Where a chain is given by its changes, count along the chain named.

B1: mAb 3 (antibody, V domains shown)
VH: EVQLVESGGGLVQPGGSLRLSCSASGFTFSTYSMHWVRQAPGKGLEYVSAITGEGDSAFYADSVKGRFTISRDNSKNTLYFEMNSLRPEDTAVYYCVGGYSNFYYYYTMDVWGQGTTVTVSS
VL: EIVLTQSPATLSLSPGERATLSCRASQSISTFLAWYQHKPGQAPRLLIYDASTRATGVPARFSGSRSGTDFTLTISTLEPEDFAVYYCQQRYNWPPYTFGQGTKVEIK
notes: also called VH.4 / VL.3
B2: mAb 6 (antibody, V domains shown)
VH: B1 VH with T28S, V111A, T117S
VL: B1 VL with T10S, S26T, T56S, T77S, T98S
notes: also called VH.3 / VL.1
B3: fusion loop targeting pan-flavivirus antibody 4G2 (antibody, V domains shown)
VH: EVQLQQSGPELVKPGTSVKISCKTSGYTFTEYTIHWVKQSHGKSLAWIGGIDPNSGGTNYSPNFKGKATLTVDKSSSTAYMDLRSLSSEDSAVYFCARIYHYDGYFDVWGAGTAVTVSS
VL: DIKMTQSPSSMYASLGERVTITCKASQDINSYLTWFQQKPGKSPKTLIYRANRLIDGVPSRFSGSGSGQDYSLTISSLDYEDMGIYYCLQYDEFPPTFGGGTKLEIKR
B4: mAb 7 (antibody, V domains shown)
VH: EVQLLESGGGLVQPGGSLRLSCAASGFSFSTYSMHWVRQAPGKGLEWVSAISGEGDSAYYADSVKGRFEISRDNSKNTLYLQMNKVRAEDTAVYYCVGGYSNFYYYYTMDAWGQGTMVTVSS
VL: DIVMTQSPASLSLSPGERATLSCRATQSIVTFLAWYQQKPGQAPRLLIYDASTNASGIPARFSGSRSGTDFTLTITRLEPEDFAVYYCQQRYNWPPYSFGQGTKLEIK
notes: also called VH.2 / VL.4
B5: mAb 8 (antibody, V domains shown)
VH: B4 VH with E69T
VL: B4 VL with V30S, N54R
notes: also called VH.1 / VL.2

Key:
[1] = molecular target: T1, Zika virus envelope protein, strain MR766-NIID (Uganda 1947) (Zika virus strain MR766-NIID (Uganda …, UniProt Q32ZE1 291-790))
[2] = molecular target: T1, Zika virus envelope protein, strain …; remark: listed apart in the source
[3] = molecular target: T2, Zika virus envelope protein, strain ILM (Brazil Paraiba 2015) (Zika virus strain ILM (Brazil Paraiba …)); test: cell-based or functional assay
[4] = molecular target: T2, Zika virus envelope protein, strain ILM …
[5] = molecular target: Zika virus envelope protein, strain H/PF/2013 (French Polynesia 2013) (Zika virus strain H/PF/2013 (French …, UniProt A0A024B7W1 291-794)); test: cell-based or functional assay

| Binder | EC50 (read off the curve) [1] [mg/L] | Kd [2] [mg/L] | PRNT50 [3] [µg/mL] | Kd [4] [mg/L] | ADE, viral titers at peak enhancement in THP1.2S cells [5] [fold] | PRNT50 [5] [µg/mL] |
| --- | --- | --- | --- | --- | --- | --- |
| B1 | ~0.8 | 0.0248 | – | – | – | – |
| B2 | ~0.03 | – | 0.0597 | 3.85 | – | – |
| B3 | – | – | – | 6.41 | – | – |
| B4 | ~0.03 | 0.0265 | – | 5.21 | – | – |
| B5 | ~0.03 | – | 5.12 | 19.3 | ≥ 3 | 5.09 |
